Test results as given in the Immune Epitope Database (IEDB).

Tests used:
Assay in all cases: IEDB peptide-MHC binding, purified MHC/competitive/radioactivity; filed as Kd, often an IC50 or EC50 that approximates it; ≥ and ≤ were set here for values at or beyond the usual limits of such assays
Conditions in all cases: source organism: Toxoplasma gondii
HLA-A*03:01 = target: HLA-A*03:01
HLA-A*33:01 = target: HLA-A*33:01
HLA-A*31:01 = target: HLA-A*31:01
HLA-A*68:01 = target: HLA-A*68:01
HLA-A*30:01 = target: HLA-A*30:01

Sequence: AVVSLLRLLK
- Kd (HLA-A*03:01): 17 nM
- Kd (HLA-A*33:01): 1100 nM
- Kd (HLA-A*31:01): 1300 nM
- Kd (HLA-A*68:01): 94 nM
- Kd (HLA-A*30:01): 8.1 nM

Sequence: STFWPCLLR
- Kd (HLA-A*03:01): 22 nM
- Kd (HLA-A*33:01): 3.4 nM
- Kd (HLA-A*31:01): 1.2 nM
- Kd (HLA-A*68:01): 0.97 nM
- Kd (HLA-A*30:01): 1270 nM
